In doi:10.1101/2025.10.17.682828:
Like-named read-outs stand apart in the source and are kept apart here.

How the values were obtained:
[1] = biological target: Human HSP90β (human) (UniProt P08238); test: cryo-EM structure
[2] = biological target: Human HSP90β (human) (UniProt P08238); test: cryo-EM structure; remark: listed apart in the source

Chain of Human HSP90β, P08238 3-724 (natural protein; other documents disagree on this pair) (P08238 3-724): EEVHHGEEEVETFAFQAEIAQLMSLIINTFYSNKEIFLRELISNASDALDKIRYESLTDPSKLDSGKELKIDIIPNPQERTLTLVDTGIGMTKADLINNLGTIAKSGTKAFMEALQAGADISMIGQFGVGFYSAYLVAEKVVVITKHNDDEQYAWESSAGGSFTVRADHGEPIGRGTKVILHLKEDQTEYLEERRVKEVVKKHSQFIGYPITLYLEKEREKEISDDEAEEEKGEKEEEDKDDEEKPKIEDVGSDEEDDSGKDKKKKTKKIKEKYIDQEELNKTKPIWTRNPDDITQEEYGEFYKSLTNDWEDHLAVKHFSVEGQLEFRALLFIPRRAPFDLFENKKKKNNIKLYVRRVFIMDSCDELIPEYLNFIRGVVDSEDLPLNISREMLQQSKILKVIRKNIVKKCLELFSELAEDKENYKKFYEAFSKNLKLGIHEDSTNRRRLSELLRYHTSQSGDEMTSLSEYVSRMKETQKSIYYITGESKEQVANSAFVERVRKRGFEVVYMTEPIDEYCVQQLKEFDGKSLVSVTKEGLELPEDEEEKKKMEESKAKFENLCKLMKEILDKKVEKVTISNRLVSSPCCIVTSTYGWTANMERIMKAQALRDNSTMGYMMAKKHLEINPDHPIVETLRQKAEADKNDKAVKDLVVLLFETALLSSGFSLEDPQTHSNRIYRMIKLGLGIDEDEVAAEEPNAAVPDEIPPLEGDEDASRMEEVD

stoichiometry N [1]: 2
stoichiometry N [2]: 2
Substance: Human HSP90β, P08238 3-724 (natural protein; other documents disagree on this pair)
